# Measured values as given in the nanobody polyreactivity screen of Harvey et al. (2022).
# Experiment: yeast display, Sf9 membrane polyspecificity reagent, FACS + sequencing; frameworks hold sequencing errors
# How it was run: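 A synthetic nanobody library was expressed on Saccharomyces cerevisiae BJ5465 by galactose induction for 36–48 hours. The library was stained for 1 hour at 4 °C with 10% biotinylated, detergent-solubilized Sf9 membrane reagent and enriched with streptavidin microbeads before FACS. Low and high (top ~1%) gates were set on anti-HA fluorescence for expression and streptavidin fluorescence for reagent binding, and each polyreactivity label reflects the gate of origin.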
row,Sequence,polyreactivity (PSR sort gate)
1,QVQLVESGGGLVQAGGSLRLSCAASGSNLVQNAMGWYRQAPGKERELVAAINWSGASTYYADSVKGRFTISRDNAKNTVYLQMNSLKPEDTAVYYCATVTLFFTDYYSWADVYTEYDYWGQGTQVTVSS,low polyreactivity
2,QVQLVESGGGLVQAGGSLRLSCAASGSTFGFNGMGWYRQAPGKERELVAAIRSSGGSTYYADSVKGRFTISRDNAKNTVYLQMNSLKPEDTAVYYCAADYYTYGFANWYLWYDYWGQGTQVTVSS,high polyreactivity
3,QVQLVESGGGLVQAGGSLRLSCAASGRIFPYCAMGWYRQAPGKEREFVAAITSSGGSTYYADSVKGRFTISRDNAKNTVYLQMNSLKREDTAVYFCFAVRHYALYAGRPYDYWGQGTEVTVSS,low polyreactivity
4,QVQLVESGGGLVQAGGSLRLSCAASGYIFVNYGMGWYRQAPGKERELVAVITNGGRTNYADSVKGRFTISRDNAKNTVYLQMNSLKPEDTAVYYCNARSFRQYYYWGQGTQVTVSS,high polyreactivity
5,QVQLVESGGGLVQAGGRLRLSCAASGSTLIRNVMGWYRQAPGKERELVAAINTRGTTTYYADSVKGRFTISRDKAKNTVYLQMNSLKPEDTAVSYCAARTPHYSYGYWGQGTHVTVSS,high polyreactivity
6,QVQLVESGGGLVQAGGSLRLSCAASGSIFYQYAMGWYRQAPGTERELVAAITWIGSPNYADSVKGRFTISRDNAKNTVYLQMNSLKPEDTAVYYCNTDPYVLQKYDYWGQGTQVTVSS,low polyreactivity
7,QVKLVEAGGGLVQAGGSLRFSCAASGNIFQGNARGWYREAPGKERELVAAITYSGAGTYYADSVKGRFTISRDNAKNSVYLQMNSLNPEDTAVYYSAADWYTFEYDYWGQGTQVTVSS,low polyreactivity
8,QVQLVESGGGLVQAGGSLRLSCAASGFTFYDYSMGWYRQAPGTERELVAASSDSGGITYYADSVKGRFTISRDNAKNTVYLQMNRLKPEDTAVYYCAADFATPGPEYDYWGQGTQVTVSS,low polyreactivity
9,QVQLVESGGGIVQAGGSLRLSCAASGSIFDKNAMGWYRQAPGKERELVAAIDSGDTYYADSVKGRFTISRDNAKNTVYLQMNSLKPEDTAVYYCAADDVQYEYDYWGQGPQVTVSS,low polyreactivity
10,QVQLVESGGGLVQAGGSLRLTCAASGGIFYKYAKGWYRQAPGKEMELVAAITGRGGSTNYADSVKVRFTISRDNAKNTVYLQMNSLKPEDTAVYYCAARYTPTWSYGYWGQGTQVTVSS,low polyreactivity
11,QVQLVESGGGLVQAGGSLRLSCAASGSIFFYNVMGWYRQAPGKERELVASISWRGASTYYADSVKGRFTISRDNAKNTVYLQMNSLKPEDTAVYYCAARFGSATRYQTGYYWGQGTQVTVSS,high polyreactivity
12,QVQLVESGGGLVQAGGSLRLSCAASGFIFDRNAMGWYRQAPGKEREFVAAITRRGGTTYYADSVKGRFTISRDNAKNTVYLQMNSLKPEDTAVYYCAATYLHVYRRRFYYWGQGTQVTVSS,high polyreactivity
13,QVQLVESGGGLVQAGGSLRLSCAASGFIFGGYAMGWYRQAPGKEREFVAAIRQRGGSTYYADSVKGRFTISRDNAKNTVYLQMNSLKPEDTAVYYCAATVRAVQASVRYGYWGQGTQVTVSS,high polyreactivity
14,QVQLQESGGGLVQASGSIFHEPNMGWYRQAPGKERELVAGISSGANTYYADSVKGRFTISRDNAKNTVYLQMNSLKPEDTAVYHCAVVVHLYTDLRYWGQDTQVTVSS,high polyreactivity
15,QVQLVESGGGLVQAGGSLRLSSAASGSTIFLYDMGWYRQAPGKERELVAAITISGGSTYYADSVKGRFTISRDNAKNTVYLQMNSLKPEDTAVYYCAVRTYRFRHWPKYDYWGQGTQVTVSS,high polyreactivity
16,QVQLVESGGGLVQAGGSLRLSCAASGIIFSRYVMGWSRQAPGKERELVAAISGSGGSTYYADSVKGRFTISRDNAKNTVYLQMNSLKPEDTAVYYCAKRRSWSNRIYGYWGQGTQVTVSS,high polyreactivity

row,Sequence,polyreactivity (PSR sort gate)
1,QVQLVESGGGLVQAGGSLRLSCAASGRTFYYYAMGWYRQAPGKERELVAAISSSGGSTYYADSVKGRFTISRDNAKNTVYLQMNSLKPEDTAVYYCNARYGGYRARYTYNYWGQGTQVTVSS,high polyreactivity
2,QVQLVESGGGLVQAGGSLRLSCAASGRTFYTYAMGWYIQAPGKEREFVAAIRFSGGNTYYADSVKGRFTISRDNAKNTVYLQMKSLKPEDTAVYYCAARRLLYKYWTGGPYDYWGQGTQVTVSS,high polyreactivity
3,QVQLVESGGGLVQAGGSLRLSCAASGSTFDGYTMGWYRQAPGKERELVAGISWSGTSTYYADSVKGRFTISRDNAKNTVYLQMNSLKPEDTAVYYCAADRYWFRLYTAGVTHRFGYWGQGTQVTVSS,low polyreactivity
4,QVQGVESGGGLVQAGGSLRLSCAAAGFTFGYYAMGWYRQAPGTERELVAGISWGGTRTYYADSVKGRFTISRDNAKNTVYLQLNSLKPEDTAVYYCAAESILGYDYWGQGTQVTVSS,high polyreactivity
5,QVQLVESGGGLVQAGGSLRLSCAASGFTFKRNAMGWYRQAPGKERELVASITSRGGSTDYADSVKGRFTISRDNAKNTVYLQMNSLKPEDTAVYYCAAVKYVVYYRSDYWGQGTQVTVSS,high polyreactivity
6,QVQLVESGGGLVQAGGSLRLSCAASGSIFPDYAMGWYRQAPGKERELVAADSVKGRFTISRDNAKNTVYLQMNSLKPEDTAVYYCNKDYIIRRGPIVYYGFDYWGQGNQVTVSS,low polyreactivity
7,QVQLVESGGGLVQAGGSLRLSCAASGFIFYAYAMGWYRQAPGKERELVAAITGSGGRTYYADSVKGRFTISRDNAKNTVYLQMNSLKPEDTAVYYCAAYYTSGGSRTYDYWGQGTQVTVSS,high polyreactivity
8,QVQLVESGGGLVQAGGSLRLSCAASGFIFGLYAMGWYRQAPGKETELVATISWDGGSTYYADSVKGRFTISRDNAKNTVYLQMNSLKPEDTAVYYCAATYLYRSPYVPMDYWGQGTQVTVSS,low polyreactivity
9,QVQLVESGGGLVQAGGRLRLSCAASGSTIPRNAMGWYRHAPGKERELVAAITSGGSTNYADSVKGRFTISRDNAKNTVYLQMNSLKPEDTAVYYCAADEQVNTQYVVWGDYWGQGTQVTVSS,low polyreactivity
10,QVQLVESGGCLVQSGGSLRLSCAASGSTFRGYAMGWYRQAPGKEREFVAAISKGGASTYYADSVKGRFTISRDNAMNTVYLQMNSLKPEDTAVYYCAKGAYRRAYGTYYYWGQGTQVTVSS,high polyreactivity
11,QVQLVESGGGLVQAGGSLRLSCAASGSARYAMGWYRQAPGKERELVAAISRRGGSTFYADSVKGRFTISRDNAKNTVYLQMHSLKPEDTAVYYCAADGRISYDYWGQGTQVTVSS,low polyreactivity
12,QVQLVESGGGLVQAGGSLRLSCAASGSIFSINTMGWYRQAPGKERELVAAITRSGSGTYYADSVKGRFTISRDNAKNTVYLQMNSLKPEDTAVYYCNADDWVGRSLRYDYWGQGTQVTVSS,low polyreactivity
13,QVQLVESGGGLVQAGGSLRLSCAASGSIVTANAMAWYRPAPGKERELVAAITTSGTSTYYADSVKGRFTLSRDNAKNTVYLQMNSLKPEDTSVYYCNADKFYRAGSELDYWGQGTQVTVSS,high polyreactivity
14,QVQLVESGGGLVQAGGSLRLSCAASGRIFGRYAMGWYRQAPGKERELVAAITSSGRTYYADSVKGRFTISRDNAKNTVYLQMNSLKPEDTAVYYCNAVARYTKYNYWGQGTQVTVSS,high polyreactivity
15,QVQLVESGGGLVQAGGSLRLSCAASGIILGYYAMGWYRQAPGKERELVAAINWSGASTYYADSVKGRFTISRDNAKNTVYLQMNSLKPEDTAVYYCARRAYGTRVLFDYWGQGTQVTVSS,high polyreactivity
16,QVQLVESGGGLVQAGGSLLLSSAASGRTFSINAMGWYRQAHGKERELVAAITWSGGSTYYADSVKGRFTISRDNAKNTVYLQMNSLKPEDTAVYYCNAGLGKFPVKGGRRYRLDYSGQGTQVTVSS,low polyreactivity
